According to patent publication US20100285022A1:

Target: F protein on live RSV virus (strain not stated) (respiratory syncytial virus)
Test: cell-based or functional assay

IC50, plaque neutralization assay on HEp2 cells with rabbit complement: 0.3 µg/mL | affinity corresponding to the IC50 of the plaque neutralization assay: 2 nM
Substance: Synagis® (palivizumab) (antibody)
